The source of these data is patent US20150307561.

The test system of data set [1] is TALEN L*, non-canonical RVDs (synthetic (Xanthomonas TALE scaffold)). The data set can be described thus: cell_activity.
In data set [2] the test system is TALEN L (L538), canonical RVDs (synthetic (Xanthomonas TALE scaffold)). The data set can be described thus: cell_activity. To be noted: cold shock.
Data set [3] relates to TALEN L*+17 (synthetic (Xanthomonas TALE scaffold)). The data set can be described thus: cell_activity. The settings on record: for off-target activity reduction (fold reduction vs L+17): L*+17 homodimer at +17_OT1.
The test system of data set [4] is TALEN R 102112 (synthetic (Xanthomonas TALE scaffold)). The data set can be described thus: cell_activity. To be noted: K562, partner TALEN L.
Data set [5] relates to TALEN R*, non-canonical RVDs (synthetic (Xanthomonas TALE scaffold)). Description: cell_activity. The settings on record: cold shock.
The subject of data set [6] is TALEN R 102162 (synthetic (Xanthomonas TALE scaffold)). The data set can be described thus: cell_activity. To be noted: K562, partner TALEN L.
In data set [7] the test system is TALEN R 102123 (synthetic (Xanthomonas TALE scaffold)). Description: cell_activity. To be noted: K562, partner TALEN L.
Data set [8] has as its system TALEN R 102109 G34R in repeat 8 (synthetic (Xanthomonas TALE scaffold)). The data set can be described thus: cell_activity. The settings on record: K562, partner TALEN L.
Data set [9] concerns TALEN R 102102 (synthetic (Xanthomonas TALE scaffold)). Description: cell_activity. To be noted: K562, partner TALEN L.
Data set [10] has as its system TALEN R 102161 (synthetic (Xanthomonas TALE scaffold)). Description: cell_activity. To be noted: K562, partner TALEN L.
Data set [11] deals with TALEN R 102151 (synthetic (Xanthomonas TALE scaffold)). Description: cell_activity. To be noted: K562, partner TALEN L.
Data set [12] concerns TALEN R 102156 (synthetic (Xanthomonas TALE scaffold)). Description: cell_activity. The settings on record: K562, partner TALEN L.
For data set [13], the system named is TALEN R 102159 (synthetic (Xanthomonas TALE scaffold)). Description: cell_activity. The settings on record: K562, partner TALEN L.
Data set [14] concerns TALEN R 102148 (synthetic (Xanthomonas TALE scaffold)). Description: cell_activity. The settings on record: K562, partner TALEN L.
The test system of data set [15] is TALEN R 102158 (synthetic (Xanthomonas TALE scaffold)). The data set can be described thus: cell_activity. The settings on record: K562, partner TALEN L.
Data set [16] deals with TALEN R 102124 (synthetic (Xanthomonas TALE scaffold)). The data set can be described thus: cell_activity. The settings on record: K562, partner TALEN L.
The subject of data set [17] is TALEN R 102128 (synthetic (Xanthomonas TALE scaffold)). Description: cell_activity. The settings on record: K562, partner TALEN L.
The subject of data set [18] is TALEN R 102146 (synthetic (Xanthomonas TALE scaffold)). The data set can be described thus: cell_activity. The settings on record: K562, partner TALEN L.
Data set [19] relates to TALEN R 102177 (synthetic (Xanthomonas TALE scaffold)). Description: cell_activity. The settings on record: K562, partner TALEN L.
For data set [20], the system named is TALEN R 102105 (synthetic (Xanthomonas TALE scaffold)). Description: cell_activity. The settings on record: K562, partner TALEN L.
Data set [21] relates to TALEN R 102129 (synthetic (Xanthomonas TALE scaffold)). The data set can be described thus: cell_activity. To be noted: K562, partner TALEN L.
In data set [22] the test system is TALEN R 102150 (synthetic (Xanthomonas TALE scaffold)). The data set can be described thus: cell_activity. To be noted: K562, partner TALEN L.
In data set [23] the test system is TALEN R 102115 (synthetic (Xanthomonas TALE scaffold)). The data set can be described thus: cell_activity. The settings on record: K562, partner TALEN L.
Data set [24] relates to TALEN R (R557), canonical RVDs (synthetic (Xanthomonas TALE scaffold)). The data set can be described thus: cell_activity. The settings on record: cold shock.
Data set [25] relates to TALE tetramer library TCAT (repeats 1-4 varied) (synthetic (Xanthomonas TALE scaffold)). The data set can be described thus: ELISA. To be noted: mean of 44 library clones, SE 0.22. In general terms: An ELISA detects its analyte on a solid surface through an enzyme-linked reagent.
In data set [26] the test system is TALE tetramer library ATAC (repeats 5-8 varied) (synthetic (Xanthomonas TALE scaffold)). The data set can be described thus: ELISA. To be noted: mean of 43 library clones, SE 0.06.
In data set [27] the test system is TALE tetramer library ATTG (repeats 5-8 varied) (synthetic (Xanthomonas TALE scaffold)). The data set can be described thus: ELISA. The settings on record: mean of 131 library clones, SE 0.05.
For data set [28], the system named is TALE tetramer library TACA (repeats 5-8 varied) (synthetic (Xanthomonas TALE scaffold)). The data set can be described thus: ELISA. To be noted: mean of 85 library clones, SE 0.06.
The subject of data set [29] is TALE tetramer library CTTC (repeats 1-4 varied) (synthetic (Xanthomonas TALE scaffold)). Description: ELISA. The settings on record: mean of 132 library clones, SE 0.07.
In data set [30] the test system is TALE tetramer library CAGA (repeats 5-8 varied) (synthetic (Xanthomonas TALE scaffold)). The data set can be described thus: ELISA. The settings on record: mean of 146 library clones, SE 0.02.
Data set [31] concerns TALEN L+17 (synthetic (Xanthomonas TALE scaffold)). Description: cell_activity. To be noted: K562, partner R2+17, cold shock.
The test system of data set [32] is TALEN R2+17 (synthetic (Xanthomonas TALE scaffold)). The data set can be described thus: cell_activity. The settings on record: K562, partner L+17 or L*+17, cold shock.
Data set [33] has as its system TALE tetramer library CAGC (repeats 5-8 varied) (synthetic (Xanthomonas TALE scaffold)). Description: ELISA. The settings on record: mean of 137 library clones, SE 0.02.
[34] abbreviates: OT2, L*/L* homodimer, about 180-fold below L.

Turning to “CCCGATGAAGCCCCAGGTGTTTTAAAT (double strand) [OT2 right half]”, the activity in data set [1] (setting [34]) was found to be 0.017 % indels; in [2] (OT2, L/L homodimer) it was 3.18 % indels.

As for “TTTACCCTGCAGGTGTGATGAAT (double strand) [+17_OT1 right half]”, the off-target activity reduction (fold reduction vs L+17) in data set [3] is above 100.

As for “TCTTCCAGAATTGATACT (double strand) [TALEN R binding site (CCR5)]”, the activity was 6.1 % indels in data set [4]; 65.2 % indels in [5] (K562, L*/R*, 55.53 with L); 23.1 % indels in data set [6]; 32.8 % indels in data set [7]; 29.7 % indels in data set [8]; 27.8 % indels in data set [9]. Further, the activity in [10] stood at 9.3 % indels; in data set [11] it was 23.6 % indels; in [12], 25.4 % indels; in data set [13] it was 24.9 % indels; in [14], 33.7 % indels; in [15] it was 23.4 % indels. Also, the activity in data set [16] stood at 29.1 % indels; in data set [17], 7.6 % indels; in data set [18], 31.4 % indels; in data set [19], 22.9 % indels; in data set [20] it was 24.9 % indels; in data set [21], 4.7 % indels. For the same sequence, the activity in [22] is 31.2 % indels; in data set [23], 27.7 % indels; in [24] (K562, L/R), 50.6 % indels.

In data set [25], “CATAGTCCCCTTCATATCCTCCTCGGTGTAGTTTTCACAGTCAGTCCACACGTC (double strand) [TCAT target]” had a binding signal (fraction of canonical control) of 1.03.

“CATAGTCCCCTTGACATACTCCTCGGTGTAGTTTTCACAGTCAGTCCACACGTC (double strand) [ATAC target]” yielded a binding signal (fraction of canonical control) in data set [26] of 0.56.

For “CATAGTCCCCTTGACATTGTCCTCGGTGTAGTTTTCACAGTCAGTCCACACGTC (double strand) [ATTG target]”, in data set [27], the binding signal (fraction of canonical control) came to 0.37.

As for “TTTTATTACACTTCCAGATCTTTTATT (double strand) [OT1 left half]”, the activity was found to be 0.32 % indels in data set [1] (OT1, L*/R*, cold shock, 1.967 for L*/R) and 3.17 % indels in data set [2] (OT1, L/R).

As to “CATAGTCCCCTTGACTACATCCTCGGTGTAGTTTTCACAGTCAGTCCACACGTC (double strand) [TACA target]”, the binding signal (fraction of canonical control) in data set [28] was determined as 0.5.

In the case of “CTTGATTCCACCTGTAGCTCCGAGCAAA (double strand) [OT2 left half]”, the activity in data set [1] (setting [34]) stood at 0.017 % indels; in data set [2] (OT2, L/L homodimer) it was 3.18 % indels.

On to “CATAGTCCCCTCTTCATCCTCCTCGGTGTAGTTTTCACAGTCAGTCCACACGTC (double strand) [CTTC target]”, for which the binding signal (fraction of canonical control) in [29] was determined as 0.55.

With “CATAGTCCCCTTGACCAGATCCTCGGTGTAGTTTTCACAGTCAGTCCACACGTC (double strand) [CAGA target]”, the binding signal (fraction of canonical control) in data set [30] was found to be 0.18.

“CTTCATTACACCTGCAGCTCTCA (double strand) [CCR5 +17 target, left half]”: the activity in data set [3] (K562, partner R2+17, cold shock) was above 85 % indels; in [31] it was above 85 % indels.

With “TTTAGATACACCTACCTATAAAT (double strand) [+17_OT1 left half]”, the off-target activity reduction (fold reduction vs L+17) in [3] was above 100.

“CCATACAGTCAGTATCAAT (double strand) [CCR5 +17 target, right half]” displayed an activity in [32] above 85 % indels.

Take “CATAGTCCCCTTGACCAGCTCCTCGGTGTAGTTTTCACAGTCAGTCCACACGTC (double strand) [CAGC target]”: the binding signal (fraction of canonical control) in data set [33] was 0.03.

As for “GTTACCAGATATCCTTTCTGGAAGAAA (double strand) [OT1 right half]”, the activity in [5] (OT1, L*/R*, 0.663 for L/R*) is 0.32 % indels; in [24] (OT1, L/R) it was 3.17 % indels.
